# Assay results published in US20150086574A1 (CELLERANT THERAPEUTICS, published 2015).
# T1: T cell Immunoglobulin- and Mucin domain-containing molecule 3 (TIM3), human, on cells (human, UniProt Q8TDQ0 22-301)
# T1 construct: TIM3 as carried by human cell lines (Pfeiffer, Daudi, CMK) and by primary cells of patients; also called HAVCR2; KIM-3
# T1 sequence: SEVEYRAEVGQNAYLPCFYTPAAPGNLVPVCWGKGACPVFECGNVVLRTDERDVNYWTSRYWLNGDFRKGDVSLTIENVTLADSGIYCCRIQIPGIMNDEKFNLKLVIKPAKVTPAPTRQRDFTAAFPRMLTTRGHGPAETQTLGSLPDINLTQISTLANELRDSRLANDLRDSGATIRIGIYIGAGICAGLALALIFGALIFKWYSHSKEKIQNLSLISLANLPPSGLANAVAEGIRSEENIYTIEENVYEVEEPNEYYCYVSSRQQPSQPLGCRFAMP
# What was measured:
# [1] = target: T cell Immunoglobulin- and Mucin domain-containing molecule 3 (TIM3), human, on cells (human) (UniProt Q8TDQ0); assay: flow cytometry; cells not named in the table (Example 5 uses Pfeiffer cells)
# [2] = target: T1, T cell Immunoglobulin- and Mucin …; assay: flow cytometry, PBMCs of AML patient 3, CD34+CD38- population
# [3] = target: T1, T cell Immunoglobulin- and Mucin …; assay: cell-based or functional assay
# [4] = target: T1, T cell Immunoglobulin- and Mucin …; assay: cell binding (flow cytometry), Pfeiffer cells
# [5] = target: T1, T cell Immunoglobulin- and Mucin …; assay: flow cytometry, PBMCs of AML patient 3, Blast population
# [6] = target: T1, T cell Immunoglobulin- and Mucin …; assay: flow cytometry; cells not named in the table (Example 5 uses Pfeiffer cells)
# [7] = target: T1, T cell Immunoglobulin- and Mucin …; assay: flow cytometry, TIM3 expressing cell lines
molecule,measurement,setting,value
Mouse IgG1k-Biotin (antibody),% Positive for TIM3,[1],0.192%
same,GeoMean (Intensity of TIM3 binding),[1],5.06
Mouse IgG1k-BZAP (antibody),% Positive for TIM3,[1],0.501%
same,GeoMean (Intensity of TIM3 binding),[1],5.33
IgG2bk-BZAP (antibody),% Positive for TIM3,[1],0.195%
same,GeoMean (Intensity of TIM3 binding),[1],6.48
Mouse IgG2ak-Biotin (antibody),% Positive for TIM3,[1],0.49%
same,GeoMean (Intensity of TIM3 binding),[1],5.83
"9.1G12 (antibody, V domains shown, also called 9.1G12.8) VH: EVMLVESGGGLVKPGGSLKLSCAASGFTFSSYAMSWVRQTPERKLEWVATISSGGTYTYYPDSVKGRFTISRDNAKNRLYLQMSGLRSEGTAMYYCVRPDYTHDDGGFAYWGQGTLVTVSA VL: QAVVTQESALTTSPGETVTLTCRSSTGAVTTSNYANWVQEKPDHLFTGLIGGTNNRAPGVPARFSGSLIGDKAALTITGAQTEDEAIYFCALWYSNHWVFGGGTKLTVL",percent binding,[2],0.23%
same,"IL-6 release from activated CD4+ T cells (ELISA), antibody at 5 ug/ml",[3],> 2 fold reduction
same,percentage of cell binding,[4],14%
same,percent binding,[5],0.67%
"9.1G12.8-BZAP (antibody, V domains shown, Biotinylated 9.1G12 (mouse IgG2b,l) conjugated to streptavidin-saporin (SAv-ZAP); also called 9.1G12-BZAP) VH: EVMLVESGGGLVKPGGSLKLSCAASGFTFSSYAMSWVRQTPERKLEWVATISSGGTYTYYPDSVKGRFTISRDNAKNRLYLQMSGLRSEGTAMYYCVRPDYTHDDGGFAYWGQGTLVTVSA VL: QAVVTQESALTTSPGETVTLTCRSSTGAVTTSNYANWVQEKPDHLFTGLIGGTNNRAPGVPARFSGSLIGDKAALTITGAQTEDEAIYFCALWYSNHWVFGGGTKLTVL",% Positive for TIM3,[6],97.4%
same,GeoMean (Intensity of TIM3 binding),[6],168
"9.1G12.8-Biotin (antibody, V domains shown, 9.1G12 (mouse IgG2b,l) biotinylated) VH: EVMLVESGGGLVKPGGSLKLSCAASGFTFSSYAMSWVRQTPERKLEWVATISSGGTYTYYPDSVKGRFTISRDNAKNRLYLQMSGLRSEGTAMYYCVRPDYTHDDGGFAYWGQGTLVTVSA VL: QAVVTQESALTTSPGETVTLTCRSSTGAVTTSNYANWVQEKPDHLFTGLIGGTNNRAPGVPARFSGSLIGDKAALTITGAQTEDEAIYFCALWYSNHWVFGGGTKLTVL",% Positive for TIM3,[6],55.4%
same,GeoMean (Intensity of TIM3 binding),[6],23.1
"27.2H4 (antibody, IgG1, V domains shown, also called 27.2H4 (D2.1)) VH: EVQLQQSGAELVRPGALVKLSCKASGFNIKHYYIHWVNQRPEQGLEWIGWIDPETGNTIYDPKFQGKASITADTSSSTAYLQLNSLTSEDTAVYCCARGWSYAMDYWGQGTSVIVSS VL: DIVMTQSHKFMSTSVGDRVSITCKASQDVNTAVAWYQQKPGHSPKLLIYSASYHYTGVPDRFTGSGSGTDFTFTISSVQAEDLAVYYCQQHYSTPWTFGGGTKLEIK",percent binding,[2],0.69%
same,percentage of cell binding,[4],75%
same,percent binding,[5],1.07%
"27.12E12-Biotin (antibody, V domains shown, 27.12E12 (mouse IgG2b,k) biotinylated) VH: EVQLQQSGAELVRPGALVKLSCKASGFNIKDYYMYWMKQRPEQGLEWIGWIDPENVKTIYDPKFQGRATLTADTSSNTAYLQLSSLTSEDTAVYYCTRDFGYVGFFDVWGAGTTVTVSS VL: DIVMTQSQKFMSTSVGDRVSVNCKASQNVGTNVVWYQQKPGQSPKALIYSASYRYSGVPDRFTGSGSGTDFTLTISTVQSEDLAEYFCQQYNSYPLTFGGGTKLEIKR",% Positive for TIM3,[6],96.8%
same,GeoMean (Intensity of TIM3 binding),[6],202
"27.12E12-BZAP (antibody, V domains shown, Biotinylated 27.12E12 (mouse IgG2b,k) conjugated to streptavidin-saporin (SAv-ZAP)) VH: EVQLQQSGAELVRPGALVKLSCKASGFNIKDYYMYWMKQRPEQGLEWIGWIDPENVKTIYDPKFQGRATLTADTSSNTAYLQLSSLTSEDTAVYYCTRDFGYVGFFDVWGAGTTVTVSS VL: DIVMTQSQKFMSTSVGDRVSVNCKASQNVGTNVVWYQQKPGQSPKALIYSASYRYSGVPDRFTGSGSGTDFTLTISTVQSEDLAEYFCQQYNSYPLTFGGGTKLEIKR",% Positive for TIM3,[6],98.8%
same,GeoMean (Intensity of TIM3 binding),[6],268
"7.10F6 (antibody, IgG1, V domains shown, also called 7.10F6.1; 7.10F6.1-pure) VH: EVQLVESGGGLVQPGGSLKLSCAASGFIFSGYGMSWVRQTPDKRLELVAIINSNGGSVDYPDSVKGRVTISRDNAKNTLYLQMSSLKSEDTAMYYCARIYYRCMDYWGQGTSVTVSS VL: NIMMTQSPSSLAVSAGEKVTMSCKSSQSLLYSSNQKNYLAWYQQKPGQSPKLLIYWASARESGVPDRFTGGGSGTDFTLTISSVQAEDLAVYYCHQYLSSYTFGGGTKLEIKR",percent binding,[2],0.6%
same,"IFN-gamma release from activated CD4+ T cells (ELISA), antibody at 5 ug/ml",[3],> 2 fold reduction
same,percentage of cell binding,[4],92%
same,% Positive for TIM3,[6],93.3%
same,GeoMean (Intensity of TIM3 binding),[6],142
same,percent binding,[5],1.33%
"33.1G12 (antibody, IgG1, V domains shown, the printed VH ends early (…GQGTSVT)) VH: EVQLQQSGPELVKPGASVKISCKASGYSFTGYLMNWVMQSHGKSLEWIGRINPYNGDIFYNQKFKDKATLTVDKSSSTAHMELRSLASEDSAVYYCARRDENFDYDNAMDYWGQGTSVTL VL: DIVLTQSPASLAVSLGQRATISCRASESVDIYGNSFMHWYQQKPGQPPKLLIYRASNLESGIPARFRGSGSRTDFTLTIYPVEADDVATYYCQQSNEDPWTFGGGTKLEIK",binding result,[7],binds
"6.14B9-Biotin (antibody, V domains shown, 6.14B9 (mouse IgG1,k) biotinylated) VH: DVQLQESGPGLVKPSQSLSLTCTVTGYSITSDYAWNWIRQFPGNKLEWMGYISYSGSISYNPSLKSRISITRDTSKNQFFLQLNSVTTEDTATYYCARSGRLRRDFDYWGQGTTLT VL: DIQMTQSPSSLSASLGERVSLTCRASQEISGYLSWLQQKPDGTIKRLIYAASTLDSGVPKRFSGSRSGSDYSLTISSLESEDFADYYCLQYASYPLTFGAGTKLELK",% Positive for TIM3,[6],48.2%
same,GeoMean (Intensity of TIM3 binding),[6],20.4
"6.14B9-BZAP (antibody, V domains shown, Biotinylated 6.14B9 (mouse IgG1,k) conjugated to streptavidin-saporin (SAv-ZAP)) VH: DVQLQESGPGLVKPSQSLSLTCTVTGYSITSDYAWNWIRQFPGNKLEWMGYISYSGSISYNPSLKSRISITRDTSKNQFFLQLNSVTTEDTATYYCARSGRLRRDFDYWGQGTTLT VL: DIQMTQSPSSLSASLGERVSLTCRASQEISGYLSWLQQKPDGTIKRLIYAASTLDSGVPKRFSGSRSGSDYSLTISSLESEDFADYYCLQYASYPLTFGAGTKLELK",% Positive for TIM3,[6],43.9%
same,GeoMean (Intensity of TIM3 binding),[6],22.5
"1.7E10 (antibody, V domains shown) VH: EVKLLESGGGLVQPGGSLKLSCAASGFDFSRYWMSWVRQAPGKGLEWIGEINPDSSTINYTPSLKDKFIISRDNAKNTLFLQMSKVRSEDTALYYCARPSYDGYYGYAMDYWGQGTSVTVSS VL: DIVLTQSPASLAVSLGQRATISCRASESVDSYGKSFMHWYQQKPGQPPKLLIYRASNLESGIPARFSGSGSRTDFTLTINPVEADDVATYYCQQSNEDPYTFGGGTKLEIKR","IFN-gamma release from activated CD4+ T cells (ELISA), antibody at 5 ug/ml",[3],> 2 fold reduction
"1.7E10.12-BZAP (antibody, V domains shown, Biotinylated 1.7E10 (mouse IgG1,k) conjugated to streptavidin-saporin (SAv-ZAP)) VH: EVKLLESGGGLVQPGGSLKLSCAASGFDFSRYWMSWVRQAPGKGLEWIGEINPDSSTINYTPSLKDKFIISRDNAKNTLFLQMSKVRSEDTALYYCARPSYDGYYGYAMDYWGQGTSVTVSS VL: DIVLTQSPASLAVSLGQRATISCRASESVDSYGKSFMHWYQQKPGQPPKLLIYRASNLESGIPARFSGSGSRTDFTLTINPVEADDVATYYCQQSNEDPYTFGGGTKLEIKR",% Positive for TIM3,[6],99.3%
same,GeoMean (Intensity of TIM3 binding),[6],436
"1.7E10.12-Biotin (antibody, V domains shown, 1.7E10 (mouse IgG1,k) biotinylated with the EZ-link Sulfo NHS-LC-Biotinylated kit) VH: EVKLLESGGGLVQPGGSLKLSCAASGFDFSRYWMSWVRQAPGKGLEWIGEINPDSSTINYTPSLKDKFIISRDNAKNTLFLQMSKVRSEDTALYYCARPSYDGYYGYAMDYWGQGTSVTVSS VL: DIVLTQSPASLAVSLGQRATISCRASESVDSYGKSFMHWYQQKPGQPPKLLIYRASNLESGIPARFSGSGSRTDFTLTINPVEADDVATYYCQQSNEDPYTFGGGTKLEIKR",% Positive for TIM3,[6],99.2%
same,GeoMean (Intensity of TIM3 binding),[6],354
"27.12A6 (antibody, V domains shown, also called 27.12A6 (D2.2)) VH: EVKLVESGGGLVQPGGSLNLSCAASGFTFSSYTMSWVRQTPEKRLEWVAYISSGGHSTYFPDTVKGRFTISRDNAKNTLYLQMSSLKSEDTAVYYCARGGYGNYGPYYNMDYWGQGTSVTVSS VL: NIMMTQSPSSLAVSAGEKVTMSCKSSQSVLYSSNQKNYLAWYQQKPGQSPKLLIYWASTRESGVPDRFTGSGSGTDFTLTINNVQAEDLAVYYCHQYLSSWTFGGGTKLEIK",binding result,[7],binds
"6.16F9 (antibody, V domains shown, also called 6.16F9 (D2.4)) VH: EVNLVESGGGLVQPGGSLKLSCAASGFTFSSYTMSWVRQSPEKRLEWVAYTSSSGASTYYPDTVKGRFTISRDNAKNTLHLQMSSLKSEDTAMYYCARGGYGNYGPYYALDYWGQGTSVTVSS VL: NIMMTQSPSSLAVSAGEKVTMSCKSSQSVLYSSNQKNYLAWYQQKPGQSPKLLIYWASTRESGVPDRFTGSGSETDFTLTISSVQTEDLAVYYCHQYLSSWTFGGGTKLEIK",binding result,[7],binds
